Data on one molecule can be found in US20230125561A1 (PNEUMAGEN, published 2023).

In assay [1] the target is T1, recombinant human ACE2 (Angiotensin-converting enzyme 2) (human, UniProt Q9BYF1 18-740).
T1 construct: Bought recombinant protein
The assay is described as follows: ELISA: ACE2 immobilised at 1 µg/mL, Neumifil titrated, detected with rabbit anti-Neumifil and HRP anti-rabbit IgG, 4PL fit. On the technique in general: ELISA stands for enzyme-linked immunosorbent assay.

Assay [2] has as its target T2, SARS-CoV-2 Spike S1 protein, Wuhan (Wuhan-Hu-1, Dec 2019 isolate) (SARS-CoV-2, UniProt P0DTC2 16-685).
T2 construct: domain: S1; also called original Spike protein
The assay is described as follows: ELISA: Spike S1 immobilised at 1 µg/mL, Neumifil titrated, detected with rabbit anti-Neumifil and HRP anti-rabbit IgG, 4PL fit.

T1 sequence (Q9BYF1 18-740 limits assumed): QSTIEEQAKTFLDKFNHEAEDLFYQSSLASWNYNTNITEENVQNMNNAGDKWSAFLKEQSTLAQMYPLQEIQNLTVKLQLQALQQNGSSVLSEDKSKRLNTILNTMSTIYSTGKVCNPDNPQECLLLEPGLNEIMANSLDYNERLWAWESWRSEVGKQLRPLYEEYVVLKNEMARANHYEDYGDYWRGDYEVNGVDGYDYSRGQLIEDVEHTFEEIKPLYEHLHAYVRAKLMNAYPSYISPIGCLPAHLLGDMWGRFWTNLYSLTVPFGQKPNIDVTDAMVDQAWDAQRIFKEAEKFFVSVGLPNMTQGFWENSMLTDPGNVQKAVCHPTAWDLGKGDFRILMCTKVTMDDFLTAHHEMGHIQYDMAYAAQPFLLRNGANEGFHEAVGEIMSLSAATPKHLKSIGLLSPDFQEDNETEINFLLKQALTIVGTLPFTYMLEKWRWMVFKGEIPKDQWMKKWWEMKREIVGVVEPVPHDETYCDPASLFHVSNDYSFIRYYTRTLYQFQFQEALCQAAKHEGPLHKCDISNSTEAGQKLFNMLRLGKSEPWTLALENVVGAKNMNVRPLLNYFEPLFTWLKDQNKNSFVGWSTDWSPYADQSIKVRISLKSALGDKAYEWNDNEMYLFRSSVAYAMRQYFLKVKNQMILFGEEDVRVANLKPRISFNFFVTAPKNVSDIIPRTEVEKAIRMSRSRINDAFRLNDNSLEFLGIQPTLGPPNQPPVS

B1: Neumifil (HEX17: trimeric (hexavalent) form based on S. pneumoniae CBM40) (designed binder)
chain: GAMVIEKEDVETNASNGQRVDLSSELDKLKKLENATVHMEFKPDPKAPAFYNLFSVSSATKKDEYFTMAVYNNTATLEGRGSDGKQFYNNYNDAPLKVKPGQWNSVTFTVEKPTAELPKGRARLYVNGGLSRTSLRSGNFIKDMPDVTHVQIGATKRANNTVWGSNLQIRNLTVYNRALTPEEVQKRSGGGSGVIEKEDVETNASNGQRVDLSSELDKLKKLENATVHMEFKPDPKAPAFYNLFSVSSATKKDEYFTMAVYNNTATLEGRGSDGKQFYNNYNDAPLKVKPGQWNSVTFTVEKPTAELPKGRARLYVNGGLSRTSLRSGNFIKDMPDVTHVQIGATKRANNTVWGSNLQIRNLTVYNRALTPEEVQKRSGGSLGVPDFESDWFDVSSNSLYTLSHGLQRSPRRVVVEFARSSSPSTWNIVMPSYFNDGGHKGSGAQVEVGSLNIKLGTGAAVWGTGYFGGIDNSATTRFATGYYRVRAWI
notes: also called CBM2
One may read the EC50 as the concentration giving half of the maximal effect. For the molecule B1, the EC50 in assay [1] stood at 0.235 mg/L; in assay [2], 0.174 mg/L.
